Experimental findings from patent publication EP0959899A1 are described below.

Experiment [1] has as its target human CD2 (CD2 antigen, entire CD2 molecule) (human) (UniProt P06729). Kind of experiment: flow cytometry, two colour staining of PBMC with biotinylated LO-CD2a and Leu-5bPE (Figure 1).
Experiment [2] shares this target. Kind of experiment: flow cytometry on PBMC cultured with 500 ng/ml LO-CD2a, bound antibody detected with MARK-3-FITC (Figure 5a).
Experiment [3] shares this target. The experiment is described as follows: flow cytometry, two colour staining of human PBMC (data not shown).

Sequence of UniProt P06729 (P06729 25-351): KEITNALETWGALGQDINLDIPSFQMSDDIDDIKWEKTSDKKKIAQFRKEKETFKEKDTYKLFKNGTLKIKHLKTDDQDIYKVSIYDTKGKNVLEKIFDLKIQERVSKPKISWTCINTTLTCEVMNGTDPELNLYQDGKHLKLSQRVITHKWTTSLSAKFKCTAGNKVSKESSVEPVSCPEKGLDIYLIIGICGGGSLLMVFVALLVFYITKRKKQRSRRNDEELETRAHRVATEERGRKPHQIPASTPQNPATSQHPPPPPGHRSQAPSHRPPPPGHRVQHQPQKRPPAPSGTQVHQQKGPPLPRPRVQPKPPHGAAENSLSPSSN

In the case of “LO-CD2a rat (IgG2b-Kappa) anti-CD2 monoclonal antibody, produced by the cell line ATCC HB 11423”, in experiment [1], the % gated cells in the upper right (double positive) quadrant worked out at 66 % gated and the % total cells in the upper right (double positive) quadrant turned out to be 17 % total. The same substance had a percent of cells labelled by MARK-3 (bound LO-CD2a) at day 6 of culture in experiment [2] of 50%. In experiment [3], this substance gave a percent of the population marked by T11 that is recognized of 90%.
Turning to “Leu-5b, mouse anti-human-CD2 monoclonal antibody (Becton Dickinson)”, in experiment [1], the % gated cells in the upper right (double positive) quadrant came out at 66 % gated and the % total cells in the upper right (double positive) quadrant was 17 % total.
